Assay results as given in patent US20220033460A1 (REPERTOIRE IMMUNE MEDICINES, published 2022).

Target: […] / HLA-B*07:02 tetramer (human; SARS-CoV-2)
Experiment: DNA-barcoded tetramer staining, single-cell sequencing

B1: TCR_11 (TCR, V domains shown)
V domain 1: EDQVTQSPEALRLQEGESSSLNCSYTVSGLRGLFWYRQDPGKGPEFLFTLYSAGEEKEKERLKATLTKKESFLHITAPKPEDSATYLCAVQAPMSARGSQGNLIFGKGTKLSVKP
V domain 2: GAGVSQSPSNKVTEKGKDVELRCDPISGHTALYWYRQSLGQGLEFLIYFQGNSAPDKSGLPSDRFSAERTGGSVSTLTIQRTQQEDSAVYLCASSSKGGGQQTQYFGPGTRLLVLE
In the case of B1, the “No. of Cells” value is reported as 10 cells.
